Results: patent US20100260773A1 (UCB, published 2010)
Values joined by “and” are separate entries in the source; they are usually repeats but may differ in a detail not shown here. Equal values may be shown once.

Experiments:
[1] = molecular target: variant human IL-13 (R130Q) (human) (UniProt P35225); test: cell-based or functional assay
[2] = molecular target: T1, human IL-13 (wild type) (human, UniProt P35225 35-146); test: Biacore 3000 SPR; Ab652 Fab captured by immobilised anti-human F(ab')2, hIL-13 titrated as analyte; average of 3 determinations
T1 construct: All wild-type human IL-13 preparations are written as this one molecule; also called hIL-13; recombinant human IL-13
Description: (§1) BIA (Biamolecular Interaction Analysis) was performed using a BIAcore 3000 (BIAcore AB). Affinipure F(ab′)₂ Fragment, goat anti-human IgG, F(ab′)₂ fragment specific (Jackson ImmunoResearch) was immobilised on a CM5 Sensor Chip via amine coupling chemistry to a capture level of ≈4000 response units (RUs). A blank surface was prepared in a similar way, omitting the F(ab′)₂ fragment from the procedure. HBS-EP buffer (10 mM HEPES pH 7.4, 0.15 M NaCl, 3 mM EDTA, 0.005% Surfactant P20, BIAcore AB) was used as the running buffer with a flow rate of 10 μl/min. A 10 μl injection of Ab652 Fab at ˜0.2 μg/mL was used for capture by the immobilised anti-human IgG-F(ab′)₂ to allow sufficient IL-13 binding but also to minimise mass transport limited binding effects. Human IL13 was titrated over the captured Ab652 at various concentrations (10 nM to 0.31 nM) at a flow rate of 30 μL/min The surface was regenerated by a 10 μl it injection of 40 mM HCl, followed by a 5 μl it injection of 5 mM NaOH at a flowrate of 10 μL/min
(§2) Background subtraction binding curves were analysed using the BIAevaluation software (version 3.2) following standard procedures. Kinetic parameters were determined from the fitting algorithm.

[3] = molecular target: T2, cynomolgus monkey IL-13 (cynomolgus monkey, UniProt Q0PW92 21-132); test: cell-based or functional assay
[4] = molecular target: T3, Rat IL-13 (rat, UniProt P42203 19-131, limits assumed); test: cell-based or functional assay
T3 sequence (looked up): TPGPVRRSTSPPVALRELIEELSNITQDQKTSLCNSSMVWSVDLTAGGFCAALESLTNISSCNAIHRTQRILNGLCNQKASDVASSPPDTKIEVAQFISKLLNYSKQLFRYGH

[5] = molecular target: T1, human IL-13 (wild type); test: Biacore 3000 SPR; purified Ab652 Fab captured by anti-human F(ab')2, hIL-13 as analyte; average of the table's runs
Description: as §1, §2

[6] = molecular target: T2, cynomolgus monkey IL-13; test: cell-based or functional assay; remark: listed apart in the source
[7] = molecular target: T1, human IL-13 (wild type); test: cell-based or functional assay

T1 sequence (P35225 35-146 limits assumed): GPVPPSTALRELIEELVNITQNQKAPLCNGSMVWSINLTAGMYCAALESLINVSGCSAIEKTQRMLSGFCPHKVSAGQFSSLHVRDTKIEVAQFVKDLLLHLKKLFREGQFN
T2 sequence (Q0PW92 entry or part of it): as the sequence (P35225 35-146 limits assumed) above, with G1S, R10K, M42V, S67N, H83R, L100V counted along it
Chain of variant human IL-13 (R130Q) (human) (P35225 35-146, stated change not applied): as the sequence (P35225 35-146 limits assumed) above

B1: Ab652 (humanised anti-human IL-13 Fab, graft gL1gH2) (Fab, V domains shown)
VH: QVTLKESGPVLVKPTETLTLTCTVSGFSLTNYHVQWIRQPPGKALEWLGVMWSDGDTSFNSVLKSRLTISRDTSKSQVVLTMTNMDPVDTATYYCARDGTIAAMDYFDYWGQGTLVTVSS
VL: DIQMTQSPSSLSASVGDRVTITCLASEDISNYLAWYQQKPGKAPKLLIYHTSRLQDGVPSRFSGSGSGTDFTLTISSLQPEDFATYYCQQGYRFPLTFGGGTKVEIKR
notes: also called Ab652 Fab
- IC50 Ab652 Fab, HEK-Blue STAT-6 assay; IL-13 source natural human T cell, R130Q variant (250 pg/ml) [1]: 1.66 ng/mL
- Kd [2]: 0.0152 nM and 0.015 nM
- koff [2]: 6.52e-05 s⁻¹
- kon [2]: 4.51e+06 M⁻¹ s⁻¹
- neutralisation potency against cynomolgus IL-13 relative to human IL-13 from rat fibroblasts, HEK Blue assay [3]: ≤ 3 fold
- IC50 of Ab652, HEK Blue assay; recombinant mammalian cell derived rat IL-13 (transfected HEK293 supernatant), n = 1 [4]: 953 ng/ml and 20000 pM
- Kd [5]: 0.0134 nM and 0.013 nM
- koff [5]: 6.27e-05 s⁻¹
- kon [5]: 4.82e+06 M⁻¹ s⁻¹
- IC50 Ab652 Fab, HEK-Blue STAT-6 assay; cynomolgus IL-13 on human receptor (1/4,000 = 250 pg/ml) [6]: 1.61 ng/mL
- IC50 Ab652 Fab, HEK-Blue STAT-6 assay; IL-13 source E. coli-derived, wild type (250 pg/ml) [7]: 1.05 ng/mL
- IC50 Ab652 Fab, HEK-Blue STAT-6 assay; IL-13 source mammalian (rat fibroblasts), wild type (250 pg/ml) [7]: 0.57 ng/mL
- IC50 Ab652 Fab, HEK-Blue STAT-6 assay; IL-13 source natural human T cell, wild type (250 pg/ml) [7]: 2.12 ng/mL
- IC50 Ab652 Fab, HEK-Blue STAT-6 assay; nebulised Fab (IL-13 source of this row not given) [7]: 1.15 ng/mL
